1 substance from paper doi:10.1101/580076 can be followed below.

Broadly, the stoichiometry N is the number of molecules, sites or subunits per partner or assembly.

For this test, the target named is HAdV-D26 fiber-knob protein (human adenovirus D serotype 26 (HAdV-D26)). In words: crystal structure.

Substance “HAdV-D26 fiber-knob protein (domain or fragment)” showed a stoichiometry N of 3.
